These are literature values, as cited in PMC8573040.

pKd: −log10 of the molar value.

The target in data set [1] is MBP (unfolded) (Escherichia coli) [MBP: P0AEX9].
In data set [2] the target is PhoA (unfolded) (Escherichia coli) [phosphatase: P00634].
Another data set concerns the target Im7 (Escherichia coli) (UniProt Q03708).
UniProt Q03708, sequence (Q03708 whole entry): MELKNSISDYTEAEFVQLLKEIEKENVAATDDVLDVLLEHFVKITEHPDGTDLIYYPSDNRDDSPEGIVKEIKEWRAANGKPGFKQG

The term pKd denotes the Kd on a negative log10 scale, so that one unit is a factor of ten. In the case of SecB (from UniProt P0AG86), the pKd was 7.30 in data set [1] and 6.30 in data set [2].

Take Spy (from UniProt P77754): the pKd in the data set with Im7 (Escherichia coli) was 5.70.
